Data on two molecules can be found in paper PMC4260089 (The Plant Journal, 2014).

The term stoichiometry N denotes a count of units in the complex or per binding partner.

Data set [1] addresses T1, SERK3^250–615 (entire cytoplasmic portion, JM–KD–CT) (Arabidopsis thaliana), Q94F62.
T1 chain: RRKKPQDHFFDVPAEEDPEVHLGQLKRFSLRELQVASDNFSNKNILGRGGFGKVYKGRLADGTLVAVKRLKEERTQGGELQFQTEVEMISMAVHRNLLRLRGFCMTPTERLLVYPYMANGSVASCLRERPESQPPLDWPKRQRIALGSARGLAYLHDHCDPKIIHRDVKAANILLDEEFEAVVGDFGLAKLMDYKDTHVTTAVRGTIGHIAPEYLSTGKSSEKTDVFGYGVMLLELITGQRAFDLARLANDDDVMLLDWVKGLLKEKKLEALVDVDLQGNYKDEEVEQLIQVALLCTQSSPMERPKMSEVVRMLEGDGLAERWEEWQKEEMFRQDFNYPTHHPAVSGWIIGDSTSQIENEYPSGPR
Description: SEC. As to conditions: remark: other sources report otherwise.

The data set “SEC” deals with the molecule itself. Description: SEC.

B1: SERK3^250–615 (entire cytoplasmic portion, JM–KD–CT), Q94F62 250-615 (domain or fragment)
chain: T1 chain
With B1, the stoichiometry N in data set [1] amounted to 2.

B2: SERK2^281–628 (cytoplasmic portion, JM–KD–CT) (domain or fragment, Arabidopsis thaliana, UniProt Q9XIC7 281-628, looked up)
chain: EDPEVHLGQLKRFSLRELQVATDSFSNKNILGRGGFGKVYKGRLADGTLVAVKRLKEERTPGGELQFQTEVEMISMAVHRNLLRLRGFCMTPTERLLVYPYMANGSVASCLRERPPSQLPLAWSIRQQIALGSARGLSYLHDHCDPKIIHRDVKAANILLDEEFEAVVGDFGLARLMDYKDTHVTTAVRGTIGHIAPEYLSTGKSSEKTDVFGYGIMLLELITGQRAFDLARLANDDDVMLLDWVKGLLKEKKLEMLVDPDLQSNYTEAEVEQLIQVALLCTQSSPMERPKMSEVVRMLEGDGLAEKWDEWQKVEVLRQEVELSSHPTSDWILDSTDNLHAMELSGPR
With B2, in the data set “SEC”, the “stoichiometry N” value came out at 2.
